B1: CPEB3 Ribozyme (parent)
chain: UAACAGGGGGCCACAGCAGAAGCGUUCACGUCGCAGCCCCUGUCAGAUUCUGGUGAAUCUGCGAAUUCUGCUGUAUAUCUC

This data set covers variants of B1. The data set is described as follows: self-cleavage, relative activity (ratio to wild type); higher = more cleavage; in vitro, sequencing. In short, it runs like this: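 Relative activity compares each variant's cleaved/total read fraction with that of the unmutated ribozyme. To get these fractions, barcoded CPEB3 ribozyme libraries from rounds of error-prone PCR were transcribed with T7 RNA polymerase for 5 hours at 37°C and then given 15 min of DNase I treatment before EDTA was added. The RNAs were reverse transcribed with template switching and sequenced on Illumina, and DNA sequencing linked barcodes to variants. A minimum of 5 reads applied, and three batches were averaged.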
UAACAGGGGGCCACAGCAGAAGCGUUCACGUCGCAGCCCCUGUCAGAUACUAGUGAAUCUGCGAAUUCUGCUGUAUAUCUC [U49A G52A]: the self-cleavage was determined as 0.84.

UAACAGGGGGCCACAGCAGAAGCGUUCACGUCGCAGCCCCUGUCAGAUACUGGUGAAACUGCGAAUUCUGCUGUAUAUCUC [U49A U58A]: the self-cleavage was 0.21.

Turning to UAACAGGGGGCCACAGCAGAAGCGUUCACGUCGCAGCCCCUGUCAGAUACUGGUGAACCUGCGAAUUCUGCUGUAUAUCUC [U49A U58C], the self-cleavage came to 0.33.

With UAACAGGGGGCCACAGCAGAAGCGUUCACGUCGCAGCCCCUGUCAGAUACUGGUGAAUCUGCGAAUUCUGCUGUACAUCUC [U49A U76C], the self-cleavage turned out to be 0.69. Consider UAACAGGGGGCCACAGCAGAAGCGUUCACGUCGCAGCCCCUGUCAGAUCCUGGUGAAUCUGCGAAUUCUGCUGUAUAUCUC [U49C], for which the self-cleavage was found to be 0.43. With UAACAGGGGGCCACAGCAGAAGCGUUCACGUCGCAGCCCCUGUCAGAUCCUGGUGAAUCUGCGAGUUCUGCUGUAUAUCUC [U49C A65G] the figure was 0.26; with UAACAGGGGGCCACAGCAGAAGCGUUCACGUCGCAGCCCCUGUCAGAUCCUGGUGAAUCUGCGACUUCUGCUGUAUAUCUC [U49C A65C], 0.14; with UAACAGGGGGCCACAGCAGAAGCGUUCACGUCGCAGCCCCUGUCAGAUCCUGGUGAAUCUGCGAUUUCUGCUGUAUAUCUC [U49C A65U], 0.26.

Take UAACAGGGGGCCACAGCAGAAGCGUUCACGUCGCAGCCCCUGUCAGAUCCUGGUGAUUCUGCGAAUUCUGCUGUAUAUCUC [U49C A57U]: the self-cleavage was determined as 0.33. As for UAACAGGGGGCCACAGCAGAAGCGUUCACGUCGCAGCCCCUGUCAGAUCCUGGUGAGUCUGCGAAUUCUGCUGUAUAUCUC [U49C A57G], the self-cleavage came out at 0.35. Consider UAACAGGGGGCCACAGCAGAAGCGUUCACGUCGCAGCCCCUGUCAGAUACUGGUGAAUCUGAGAAUUCUGCUGUAUAUCUC [U49A C62A], for which the self-cleavage was 0.26. With UAACAGGGGGCCACAGCAGAAGCGUUCACGUCGCAGCCCCUGUCAGAUACUGGUGAAUCUGUGAAUUCUGCUGUAUAUCUC [U49A C62U] the figure was 0.44; with UAACAGGGGGCCACAGCAGAAGCGUUCACGUCGCAGCCCCUGUCAGAUACUGGUGAAUCUGCGAAUUCUGCUGUUUAUCUC [U49A A75U], 0.64. Then UAACAGGGGGCCACAGCAGAAGCGUUCACGUCGCAGCCCCUGUCAGAUACUGGUGAAUCUGCGAAUUCUGCUGUGUAUCUC [U49A A75G], with 0.39. With UAACAGGGGGCCACAGCAGAAGCGUUCACGUCGCAGCCCCUGUCAGAUACUGGUGAAUCUCCGAAUUCUGCUGUAUAUCUC [U49A G61C] the figure was 0.19; with UAACAGGGGGCCACAGCAGAAGCGUUCACGUCGCAGCCCCUGUCAGAUACUGGUGAAUCUGCGAAUUCUGCGGUAUAUCUC [U49A U72G], 0.4. As for UAACAGGGGGCCACAGCAGAAGCGUUCACGUCGCAGCCCCUGUCAGAUACUGGUGAAUCUGCGAAUUCUGCAGUAUAUCUC [U49A U72A], the self-cleavage was determined as 0.44. Turning to UAACAGGGGGCCACAGCAGAAGCGUUCACGUCGCAGCCCCUGUCAGAUACUGGUGAAUCUGCGAAUUCUGCCGUAUAUCUC [U49A U72C], the self-cleavage came to 0.87.

Regarding UAACAGGGGGCCACAGCAGAAGCGUUCACGUCGCAGCCCCUGUCAGAUACUGGUGAAUCUGCUAAUUCUGCUGUAUAUCUC [U49A G63U], the self-cleavage amounted to 0.63. With UAACAGGGGGCCACAGCAGAAGCGUUCACGUCGCAGCCCCUGUCAGAUACUGGUGAAUCUGCCAAUUCUGCUGUAUAUCUC [U49A G63C] the figure was 0.88; with UAACAGGGGGCCACAGCAGAAGCGUUCACGUCGCAGCCCCUGUCAGAUACUGGUGAAUCUGCAAAUUCUGCUGUAUAUCUC [U49A G63A], 0.69. Then UAACAGGGGGCCACAGCAGAAGCGUUCACGUCGCAGCCCCUGUCAGAUCCUGGUGAAUCUGCGCAUUCUGCUGUAUAUCUC [U49C A64C], with 0.26; and UAACAGGGGGCCACAGCAGAAGCGUUCACGUCGCAGCCCCUGUCAGAUCCUGGUGAAUCUGCGUAUUCUGCUGUAUAUCUC [U49C A64U], with 0.24; and UAACAGGGGGCCACAGCAGAAGCGUUCACGUCGCAGCCCCUGUCAGAUCCUGGUGAAUCUGCGGAUUCUGCUGUAUAUCUC [U49C A64G], with 0.27. Then UAACAGGGGGCCACAGCAGAAGCGUUCACGUCGCAGCCCCUGUCAGAUACAGGUGAAUCUGCGAAUUCUGCUGUAUAUCUC [U49A U51A], with 0.45; and UAACAGGGGGCCACAGCAGAAGCGUUCACGUCGCAGCCCCUGUCAGAUACCGGUGAAUCUGCGAAUUCUGCUGUAUAUCUC [U49A U51C], with 0.66; and UAACAGGGGGCCACAGCAGAAGCGUUCACGUCGCAGCCCCUGUCAGAUACUGGUGAAUAUGCGAAUUCUGCUGUAUAUCUC [U49A C59A], with 0.34.

For UAACAGGGGGCCACAGCAGAAGCGUUCACGUCGCAGCCCCUGUCAGAUACUGGUGAAUUUGCGAAUUCUGCUGUAUAUCUC [U49A C59U], the self-cleavage is 0.19. Then UAACAGGGGGCCACAGCAGAAGCGUUCACGUCGCAGCCCCUGUCAGAUACUGGUGAAUCUGCGAAUUCUGCUGUAUAUUUC [U49A C79U], with 1.07; and UAACAGGGGGCCACAGCAGAAGCGUUCACGUCGCAGCCCCUGUCAGAUACUGGUCAAUCUGCGAAUUCUGCUGUAUAUCUC [U49A G55C], with 0.62. For UAACAGGGGGCCACAGCAGAAGCGUUCACGUCGCAGCCCCUGUCAGAUACUGGUAAAUCUGCGAAUUCUGCUGUAUAUCUC [U49A G55A], the self-cleavage was determined as 0.78.

For the variant UAACAGGGGGCCACAGCAGAAGCGUUCACGUCGCAGCCCCUGUCAGAUACUGGUGAAUCUGCGAAUUCUGCUGUAUUUCUC [U49A A77U], the self-cleavage stood at 0.9. Then UAACAGGGGGCCACAGCAGAAGCGUUCACGUCGCAGCCCCUGUCAGAUACUGGUGAAUCUGCGAAUUCUGCUGUAUGUCUC [U49A A77G], with 0.46; and UAACAGGGGGCCACAGCAGAAGCGUUCACGUCGCAGCCCCUGUCAGAUACUGGUGAAUCUGCGAAUUCUGCUGUAUAGCUC [U49A U78G], with 0.6.
